In publication PMC6765138 (Nucleic Acids Research, 2019):
Substitutions are numbered along the chain they refer to.

B1: Se-Met-MtPrpR_(81–486) (selenomethionine-derived MtPrpR_(81–486)) (domain or fragment)
chain: DARLVADLSDVFTDIGVEHAVSGAQIEEFVARMPEVGHSLVAVHRRLRAATEELEGYRSRATAETELPPARPMPFEEVRDFFYDRNNYIHDLDMAAERMFTESGMRTGGLDIQLAELMRDRFGISVVIDDNLPDTAKRRYHPDTKVLRVAHWLMPGQRAFQIATQLALVGQSDLISSIVATDDQLSTEARGVARIGLANYFAGAFLLPYREFHRAAEQLRYDIDLLGRRFGVGFETVCHRLSTLQRPRQRGIPFIFVRTDKAGNISKRQSATAFHFSRVGGSCPLWVVHDAFAQPERIVRQVAQMPDGRSYFWVAKTTAADGLGYLGPHKNFAVGLGCDLAHAHKLVYSTGVVLDDPSTEVPIGAGCKICNRTSCAQRAFPYLGGRVAVDENAGSSLPYSSTEQSV
modifications: selenomethionine incorporated in place of methionine
notes: also called Se-PrpR_(81–486); not shown: His6, N-terminal, kept
B2: MtPrpR_(81–486)_F155H variant (domain or fragment)
chain: B1 chain with F75H
notes: also called MtPrpR_(81–486)_F155H mutant; MtRamB-like mutant of MtPrpR; not shown: His6, N-terminal, kept

Experiments:
[1] = target: the molecule itself; experiment: crystal structure
[2] = target: the molecule itself; experiment: SEC

Protein	stoichiometry N [1]	stoichiometry N [2]
B1	4	–
B2	–	4
